# Measurements published in US20180334496A1 (KODIAK SCIENCES, published 2018).
# Changes are numbered by the printed parent chain. “And” between values parts separate entries of the source, which are not always exact repeats. Equal values may be shown once.
# B1: KCD119 (antibody, V domains shown)
# VH: EVQLQQSGPELVKPGASVKISCKASGYTFTDYYTNWMRQRHGESLEWIGDINPNTGDTSYNQKFRVKATLTVDKSSGTAYMGLRSLTSEDSAVYYCTREGPSFAYWGQGTLVTVSA
# VL: DVLMTQTPLSLPVSLGDQASISCRSSQTIVHSNGDTYLEWYLQKPGQSPNLLIYKVSNRFSGVPDRFSGSGSGTDFTLKISRVEAEDLGVYYCFQGSHVPPTFGGGTTLEIK
# notes: chimeric; also called Mouse KCD119
# B2: KCD124 (antibody, V domains shown)
# VH: EVQLQQSGPELVKPGASVKISCKASGYTFTDHYMNWVKQSHGKSLEWIGDINPNNGGTSYNQKFKGKATLTVDKSSSTAYMELRSLTSGDSAVYYCTREGASFAFWGQGTLVTVSA
# VL: B1 VL with T28S, N50K, P101L, G105A, T108K, I111L
# notes: chimeric
# B3: KCD119 TAF / KCD119 TAF (antibody, V domains shown)
# VH: EVQLVESGGGLVQPGGSLRLSCAASGYTFTDYYMNWVRQAPGKGLEWIGDINPNTGDTSYNADFKRRFTFSLDTSKSTAYLQMNSLRAEDTAVYYCTREGPSFAYWGQGTLVTVSS
# VL: DIQLTQSPSSLSASVGDRVTITCRSSQTIVHSNGDTYLEWYQQKPGKAPNLLIYKVSNRFSGVPSRFSGSGSGTDFTLTISSLQPEDFATYYCFQGSHVPPTFGQGTKVEIK
# notes: Humanized KCD119; tested as full antibody captured on protein A; also called D19 TAF
# B4: 34I54I59D84S / 54G101V (antibody, V domains shown)
# VH: B3 VH with M34I, N54I, S59D, N84S
# VL: B3 VL with Y54G, P101V
# notes: also called 34I54I59D845 / 54G101V
# B5: 31S34I54I59D84S / 54R101V (antibody, V domains shown)
# VH: B3 VH with D31S, M34I, N54I, S59D, N84S
# VL: DIQLTQSPSSLSASVGDRVTITCRSSQTIVHSNGDTYLEWYQQKPGKAPNLLIRKVSNRFSGVPSRFSGSGSGTDFTLTISSLQPEDFATYYCFQGSHVPVTFGQGTKVEIKR
# notes: KCD119 TAF variant; also called 3I534I54I59D84S / 54R101V
# B6: 31S34I54I59D84S / 54G101V (antibody, V domains shown)
# VH: B3 VH with D31S, M34I, N54I, S59D, N84S
# VL: B3 VL with Y54G, P101V
# notes: KCD119 TAF variant; full antibody captured on protein A; also called 31S34I54I59D845 / 54G101V; 3I534I54I59D84S / 54G101V
# B7: 31S34I54I59D / 54R101V (antibody, V domains shown)
# VH: B3 VH with D31S, M34I, N54I, S59D
# VL: B5 VL
# notes: KCD119 TAF variant
# B8: 54I59D / 54R101V (antibody, V domains shown)
# VH: B3 VH with N54I, S59D
# VL: B5 VL
# notes: KCD119 TAF variant
# B9: 34I54I59D / 54R101V (antibody, V domains shown)
# VH: B3 VH with M34I, N54I, S59D
# VL: B5 VL
# notes: KCD119 TAF variant
# B10: Mouse KCD119 (antibody, V domains shown)
# VH: B1 VH
# VL: B1 VL
# B11: KCD119 TAF (antibody, V domains shown)
# VH: B3 VH
# VL: B3 VL
# B12: 31S34I54V59D84S/54R101V (SEQ ID NO: 184) (antibody, V domains shown)
# VH: B3 VH with D31S, M34I, N54V, S59D, N84S
# VL: B5 VL
# B13: 34I54V59D84S/54R101V (SEQ ID NO: 184) (antibody, V domains shown)
# VH: B3 VH with M34I, N54V, S59D, N84S
# VL: B5 VL
# Molecular target: T1, human complement factor D purified from serum (human, UniProt P00746 26-253)
# Assay: cell-based or functional assay
# Wherever CFD Enzymatic activity (% of Neg Ctrl) is given: test concentration or dose not given here.
# T1 sequence (P00746 26-253): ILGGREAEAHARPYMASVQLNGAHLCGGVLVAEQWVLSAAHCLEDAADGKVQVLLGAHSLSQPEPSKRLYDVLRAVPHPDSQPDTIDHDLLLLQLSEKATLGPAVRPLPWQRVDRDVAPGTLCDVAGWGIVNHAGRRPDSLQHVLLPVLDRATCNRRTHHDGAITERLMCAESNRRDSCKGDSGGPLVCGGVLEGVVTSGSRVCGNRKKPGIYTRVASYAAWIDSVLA
row,CFD Enzymatic activity (% of Neg Ctrl),Binder
1,15.7 % of Neg Ctrl,B1
2,19.7 % of Neg Ctrl,B2

# Molecular target: T2, serum purified human Complement Factor D (human, UniProt P00746 26-253)
# T2 construct: Serum purified protein flowed over the captured antibodies; also called CFD; human CFD
# Assay: SPR Biacore, antibody on protein A chip, single cycle kinetics, 37 C
# T2 sequence (P00746 26-253): as above
Kd,koff,kon,Binder
499 pM,0.00628 s⁻¹,1.26e+07 M⁻¹ s⁻¹,B3
7.74 pM,0.000112 s⁻¹,1.45e+07 M⁻¹ s⁻¹,B4
3.92 pM,0.000137 s⁻¹,3.5e+07 M⁻¹ s⁻¹,B5
6.11 pM,7.36e-05 s⁻¹,1.21e+07 M⁻¹ s⁻¹,B6

# Molecular target: T1, human complement factor D purified from …
# Assay: not given
row,Kd,Binder
1,35.8 pM,B1
2,780 pM,B2

# Molecular target: T2, serum purified human Complement Factor D
# Assay: SPR Biacore, 25 C
Kd,koff,kon,Binder
5.96 pM,7.84e-05 s⁻¹,1.32e+07 M⁻¹ s⁻¹,B7
5.72 pM,9.8e-05 s⁻¹,1.71e+07 M⁻¹ s⁻¹,B8
5.62 pM,0.000101 s⁻¹,1.8e+07 M⁻¹ s⁻¹,B9

# Molecular target: T2, serum purified human Complement Factor D
# Assay: SPR Biacore, antibody on protein A chip, single cycle kinetics, 37 C
# Remark: another data set of the same source
Kd,koff,kon,Binder
499 pM,0.00628 s⁻¹,1.26e+07 M⁻¹ s⁻¹,B3
7.74 pM,0.000112 s⁻¹,1.45e+07 M⁻¹ s⁻¹,B4
3.92 pM,0.000137 s⁻¹,3.5e+07 M⁻¹ s⁻¹,B5
5.83 pM and 9.61 pM,0.000157 s⁻¹ and 0.000237 s⁻¹,2.69e+07 M⁻¹ s⁻¹ and 2.46e+07 M⁻¹ s⁻¹,B7
7.1 pM and 5.43 pM and 6.63 pM and 7.92 pM,0.000187 s⁻¹ and 0.000257 s⁻¹ and 0.000205 s⁻¹ and 0.0003 s⁻¹,2.64e+07 M⁻¹ s⁻¹ and 4.74e+07 M⁻¹ s⁻¹ and 3.09e+07 M⁻¹ s⁻¹ and 3.78e+07 M⁻¹ s⁻¹,B8
8.08 pM,0.000264 s⁻¹,3.27e+07 M⁻¹ s⁻¹,B9
6.11 pM,7.36e-05 s⁻¹,1.21e+07 M⁻¹ s⁻¹,B6

# Molecular target: T2, serum purified human Complement Factor D
# Assay: SPR Biacore, 37 C
Kd,koff,kon,Binder
9.61 pM,0.000237 s⁻¹,2.46e+07 M⁻¹ s⁻¹,B7
6.63 pM,0.000205 s⁻¹,3.09e+07 M⁻¹ s⁻¹,B8
8.08 pM,0.000264 s⁻¹,3.27e+07 M⁻¹ s⁻¹,B9

# Molecular target: T3, recombinant human CFD mutant 1 (R157A, R207A), His-tagged (human, UniProt P00746 26-253)
# T3 construct: positions are linear positions in the mature protein; also called rhCFD-mut1-His; Mut1
# Assay: ELISA
# T3 sequence (P00746 26-253 R182A/R232A limits assumed): as the sequence (P00746 26-253) above, with R157A, R207A counted along it
row,Mut1 Binding (% wt),Binder
1,-0.643 % wt,B2

# Molecular target: T2, serum purified human Complement Factor D
# Assay: SPR Biacore, antibody on protein A chip, single cycle kinetics, 25 C
Kd,koff,kon,Binder
113 pM,0.00155 s⁻¹,1.38e+07 M⁻¹ s⁻¹,B3
6.83 pM,5.18e-05 s⁻¹,7.59e+06 M⁻¹ s⁻¹,B4
< 0.602 pM,< 1e-05 s⁻¹,1.66e+07 M⁻¹ s⁻¹,B5
7.6 pM and 5.96 pM,0.000106 s⁻¹ and 7.84e-05 s⁻¹,1.39e+07 M⁻¹ s⁻¹ and 1.32e+07 M⁻¹ s⁻¹,B7
6.42 pM and 2.94 pM and 5.72 pM and 5.23 pM,7.04e-05 s⁻¹ and 5.95e-05 s⁻¹ and 9.8e-05 s⁻¹ and 9.5e-05 s⁻¹,1.1e+07 M⁻¹ s⁻¹ and 2.02e+07 M⁻¹ s⁻¹ and 1.71e+07 M⁻¹ s⁻¹ and 1.82e+07 M⁻¹ s⁻¹,B8
5.62 pM,0.000101 s⁻¹,1.8e+07 M⁻¹ s⁻¹,B9
,,4.42e+06 M⁻¹ s⁻¹,B6

# Molecular target: human Complement Factor D (serum purified) (human, UniProt P00746 26-253)
# Assay: cell-based or functional assay
# human Complement Factor D (serum purified), sequence (P00746 26-253): as the sequence (P00746 26-253) above
"% no ab control, CFD enzymatic activity on Z-L-Lys-SBzl","Vmax (OD/sec), CFD enzymatic activity on Z-L-Lys-SBzl",Binder
15.3 % no ab control,0.318 OD/sec,B10
19.6 % no ab control,0.408 OD/sec,B11
28.6 % no ab control,0.596 OD/sec,B12
23.3 % no ab control,0.486 OD/sec,B13

# Molecular target: T2, serum purified human Complement Factor D
# Assay: SPR Biacore, antibody on protein A chip, single cycle kinetics, 25 C
# Remark: another data set of the same source
Kd,koff,kon,Binder
113 pM,0.00155 s⁻¹,1.38e+07 M⁻¹ s⁻¹,B3
6.83 pM,5.18e-05 s⁻¹,7.59e+06 M⁻¹ s⁻¹,B4
< 0.602 pM,< 1e-05 s⁻¹,1.66e+07 M⁻¹ s⁻¹,B5
,,4.42e+06 M⁻¹ s⁻¹,B6

# Molecular target: T4, recombinant human CFD, His-tagged (human, UniProt P00746 26-253)
# T4 construct: also called rhCFD-His
# Assay: SPR MX96
# T4 sequence (P00746 26-253 limits assumed): as the sequence (P00746 26-253) above
row,Kd,Binder
1,280 pM and 560 pM,B1
2,3300 pM,B2

# Molecular target: T5, recombinant cynomolgus CFD, His-tagged (cynomolgus)
# T5 construct: also called rcyCFD-His; recombinant Cyno-CFD
# Assay: SPR MX96
row,Kd,Binder
1,700 pM and 1100 pM,B1
2,5200 pM,B2

# Molecular target: T1, human complement factor D purified from …
# Assay: SPR MX96
row,Kd,Binder
1,370 pM and 860 pM,B1
2,4300 pM,B2
